Publication PMC2760630

Tested on: [H][C@@]12COP(=O)(O)O[C@@]1([H])[C@@H](O)[C@H](n1cnc3c(=O)[nH]c(N)nc31)O2
Assay: purified protein
[1] = catalytic site (Km, reduced affinity), allosteric cGMP binding unchanged

Substance	Km [1]	Km (catalytic site (Km), also allosteric site)
PDE5 (human PDE5A1, G659P) (Homo sapiens; G659P)	131.5 ± 7.4 µM	–
PDE5 (human PDE5A1, G659A) (Homo sapiens; G659A)	71.2 ± 1.2 µM	–
PDE5 (human PDE5A1, WT) (Homo sapiens)	–	2.91 ± 0.8 µM
